Results taken from patent US20250116658.

Experiments:
[1] = test system: GzmB protease cleavable linker IEFDSG, synthetic peptide fluorogenic probe
[2] = test system: Thrb protease cleavable linker LVPRGSG, synthetic peptide fluorogenic probe
[3] = test system: MMP9 protease cleavable linker PLGLAG, synthetic peptide fluorogenic probe
[4] = test system: Thrb substrate peptide (candidate 1) LVSPRSG, fluorogenic peptide

Substance | cleavage of synthetic peptide fluorogenic probe (corresponding pair: cleaved) [1] | cleavage of synthetic peptide fluorogenic probe (non-corresponding pair: not cleaved) [2] | cleavage of synthetic peptide fluorogenic probe (non-corresponding pair: not cleaved) [3] | cleavage activity in fluorogenic assay [4] | cleavage of synthetic peptide fluorogenic probe (non-corresponding pair: not cleaved) [1] | cleavage of synthetic peptide fluorogenic probe (corresponding pair: cleaved) [2] | cleavage of synthetic peptide fluorogenic probe (corresponding pair: cleaved) [3]
Granzyme B (GzmB) protease | specific cleavage was shown by only the corresponding proteases | specific cleavage was shown by only the corresponding proteases | specific cleavage was shown by only the corresponding proteases |  |  |  | 
Thrombin (Thrb) protease |  |  | specific cleavage was shown by only the corresponding proteases | showed higher cleavage activity than the original Thrb cleavable sequence design (LVPRGSG (SEQ ID NO: 23)) | specific cleavage was shown by only the corresponding proteases | specific cleavage was shown by only the corresponding proteases | 
matrix metallopeptidase 9 (MMP9) |  | specific cleavage was shown by only the corresponding proteases |  |  | specific cleavage was shown by only the corresponding proteases |  | specific cleavage was shown by only the corresponding proteases
